Values quoted from earlier work as cited in paper PMC4965862.

Molecular target: Cys45 (UniProt position 45, AFTGICQGELD)
Details: reduced enzyme (Cys45 thiol/thiolate)

**Q.** Which pKa does the source give for “Alkyl hydroperoxide reductase E (AhpE), one-cysteine peroxiredoxin (Mycobacterium tuberculosis)” here?
**A.** The pKa was 5.2.
